{
  "source": "patent US20190021294A1",
  "about": "(WAKE FOREST UNIVERSITY HEALTH SCIENCES, published 2019)",
  "target": "the molecule itself",
  "assay": "X-ray crystal structure of the TREX1 D18N-dsDNA complex (homodimer of protomers)",
  "method": "Structure Determination. The mouse recombinant Trex1 enzyme (amino acids 1-242) was prepared and crystallized with a dsDNA oligonucleotide. The X-ray data were collected and processed as described further below.\nProtein Crystallization and X-ray Data Collection. The TREX1 D18N mutant was crystallized using the sitting drop vapor diffusion technique. The protein was dialyzed in 20 mM MES (pH 6.5), 50 mM NaCl and concentrated to 10 mg/mL. The pseudo-palindromic oligonucleotide DNA used for crystallization (5′-[…]-3′ (SEQ ID NO:1, Operon)) was self-annealed in buffer consisting of 20 mM NaCl, 5 mM MgCl₂, and 5 mM MES, pH 6.5. The complex was formed by incubating dsDNA with the protein in a 1:1 ratio and 5 mM magnesium chloride. A volume of 1 μl protein complex at 4 mg/ml TREX1 was mixed with an equal volume of reservoir solution and placed on a bridge above 500 μl of the reservoir solution. Optimized crystals of the TREX1 D18N mutant grew in 0.1 M sodium acetate and 9% PEG 4000 at 25° C. Prior to data collection all crystals were immersed in reservoir solution containing 10% oil (1:1 mineral oil and pantone-N) in preparation for cryo-cooling. Crystals were mounted on a nylon loop and flash cooled to 100 K in a stream of liquid nitrogen.",
  "data": [
    {"protein": "mouse recombinant TREX1 D18N enzyme (amino acids 1-242) (enzyme, Mus musculus, UniProt Q91XB0 1-242, looked up, range 1-242; Written as one protomer, because the entry is the protomer-protomer association; also called TREX1 D18N mutant; TREX1 D18N protomer) MGSQTLPHGHMQTLIFLNLEATGLPSSRPEVTELCLLAVHRRALENTSISQGHPPPVPRPPRVVDKLSLCIAPGKACSPGASEITGLSKAELEVQGRQRFDDNLAILLRAFLQRQPQPCCLVAHNGDRYDFPLLQTELARLSTPSPLDGTFCVDSIAALKALEQASSPSGNGSRKSYSLGSIYTRLYWQAPTDSHTAEGDVLTLLSICQWKPQALLQWVDEHARPFSTVKPMYGTPATTGTT", "values": [
      {"measurement": "binding result", "result": "binds"}
    ]}
  ]
}
